The text below walks through data of paper PMC6917738, “Cooperative ordering of treadmilling filaments in cytoskeletal networks of FtsZ and its crosslinker ZapA” (Nature Communications, 2019).

Where two headings read alike, the source gives them in different places.

For series [1], the target named is FtsZ (UniProt P0A9A6). The experiment in a line: single-molecule tracking by TIRF microscopy; small amounts of Cy5-labelled FtsZ (<2 nM) in 1.5 uM Alexa488-FtsZ, or of ZapA-Cy5 in unlabeled ZapA with 1.5 uM Alexa488-FtsZ, on supported bilayers; lifetime from a mono-exponential fit, corrected for photobleaching.
Series [2] concerns the target FtsZ (UniProt P0A9A6). The series can be described thus: FRAP; membrane-bound filament network at steady state (15 min), small area bleached; half-time from fit to I(t) = a(1 - exp(-bt)).
Series [3] concerns the target FtsZ (UniProt P0A9A6). The experiment in a line: single-molecule tracking by TIRF microscopy; small amounts of Cy5-labelled FtsZ (<2 nM) in 1.5 uM Alexa488-FtsZ, or of ZapA-Cy5 in unlabeled ZapA with 1.5 uM Alexa488-FtsZ, on supported bilayers; lifetime from a mono-exponential fit, corrected for photobleaching. The source holds these as a separate data set.
Series [4] addresses T1, FtsZ (UniProt P0A9A6 1-383, Cy5 or Alexa488 label on part of the protein (30% labelled in the self-organization assay; <2 nM Cy5-labelled FtsZ in 1.5 uM Alexa488-labelled FtsZ for single molecules); labelled site not stated).
T1 sequence (looked up): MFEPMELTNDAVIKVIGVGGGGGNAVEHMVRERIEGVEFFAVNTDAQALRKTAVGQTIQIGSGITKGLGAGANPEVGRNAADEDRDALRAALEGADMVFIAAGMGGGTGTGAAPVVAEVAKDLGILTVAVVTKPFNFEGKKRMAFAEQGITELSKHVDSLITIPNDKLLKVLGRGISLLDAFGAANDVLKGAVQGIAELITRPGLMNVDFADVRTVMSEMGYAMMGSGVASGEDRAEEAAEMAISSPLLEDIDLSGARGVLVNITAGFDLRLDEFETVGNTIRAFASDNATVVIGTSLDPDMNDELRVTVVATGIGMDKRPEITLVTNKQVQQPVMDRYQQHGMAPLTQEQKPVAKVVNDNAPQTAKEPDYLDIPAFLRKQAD
The experiment in a line: cell-based or functional assay.

Series [5] concerns the molecule itself. The series can be described thus: SEC; size-exclusion chromatography of ZapA wild type and mutants; conditions not shown.

On to “ZapA-Cy5 (from UniProt P0ADS2 1-109) (natural protein)”, for which the single-molecule lifetime in series [1] was 0.95; in series [3], 0.94 s. The same molecule yielded an FRAP half-time of recovery in series [2] of 3.01 s.

B1: ZapA wild type (natural protein, UniProt P0ADS2 1-109, looked up)
chain: MSAQPVDIQIFGRSLRVNCPPDQRDALNQAADDLNQRLQDLKERTRVTNTEQLVFIAALNISYELAQEKAKTRDYAASMEQRIRMLQQTIEQALLEQGRITEKTNQNFE
notes: ZapA, FtsZ-associated protein; also called ZapA WT; source: purified protein; protocols in the Supplementary Information
On to B1, for which, in series [4], the “EC50 of ZapA for the correlation length of the FtsZ filament network at steady state (ρss)” value stood at 1050 nM and the “EC50 of ZapA for the mean curvature of the FtsZ filament network at steady state (kss)” value was 840 nM. Besides, the “stoichiometry N” value in series [5] is 4.

One may read the stoichiometry N as the number of molecules, sites or subunits per partner or assembly.
